Data: PMC12872393, “NCOA4 initiates ferritinophagy by avidly binding GATE16 using two short linear interaction motifs” (Life Science Alliance, 2026)
Numbering of substitutions follows the chain as printed.

B1: biotinylated AviTag-His6-NCOA4^383−522-MBP, Q13772 486F:A (protein)
chain: SMVTEDWLVQNHQDPCKVEEVCRANEPCTSFAECVCDENCEKEALYKWLLKKEGKDKNGMPVEPKPEPEKHKDSLNMWLCPRKEVIEQTKAPKAMTPSRIADSAQVIKNSPLSEWLIRPPYKEGSPKEVPGTEDRAGKQK
B2: biotinylated AviTag-His6-NCOA4^383−522-MBP, Q13772 413F:A (protein)
chain: B1 chain with F31A, A104F

Target: (GST-GATE16)2, P60520
Test: BLI
Conditions: chain shown with the change; 5 µM (GST-GATE16)2; NCOA4 construct immobilized to the probe; parent: est. 0.105; read off a plot

Chain of (GST-GATE16)2, P60520 (P60520 whole entry): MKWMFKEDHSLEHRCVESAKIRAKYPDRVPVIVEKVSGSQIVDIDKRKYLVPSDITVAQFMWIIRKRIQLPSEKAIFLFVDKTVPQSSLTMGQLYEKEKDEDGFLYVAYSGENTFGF

| Binder | response |
| --- | --- |
| B1 | 0.026 nm |
| B2 | 0.056 nm |
